Reference: patent US9833497B2, “Human originated EGF domain proteins and use of the same” (CHENGDU SOURCEBIO LIMITED-LIABILITY COMPANY, priority 2013, dated 2017)

Legend:
Type in all cases: cell-based
[1] = tested on: Proteus mirabilis; test: MIC against Gram-negative bacteria: Proteus mirabilis; conditions: 5×10^5 CFU/mL
Protocol: (§1) 1. Gram-negative bacteria, such as E. coli BL21, Pseudomonas aeruginosa, Klebsiella pneumonia, Enterobacter cloacae, Aeromonas hydrophila, Citrobacter diversus, Moraxella catarrhalis, Proteus mirabilis, Proteus vulgaris, Serratia marcescens, etc were streaked on solid LB medium and cultured respectively. Then, typical clones were picked, inoculated into common liquid LB medium respectively, and cultured at 37° C. with shaking at 185 rpm until the McFarland specific turbidity was 0.5. The bacterial culture of each of Gram-negative bacteria was centrifuged at 4000×g for 3 min, the supernatant was discarded, and the thalli were resuspended with fresh LB medium.
(§2) 2. The above-mentioned bacterial suspensions were diluted and inoculated into 96-well plates with the final concentration of the bacterial suspension being 5×10^5 CFU/mL per well.
(§3) 3. Each of the purified human-originated EGF domain proteins (PRT1 to PRT1498 in Table 1) was added to each of the above wells and subjected to two-fold serial dilution in concentration. Three parallel wells were set up for each concentration in the gradient.
(§4) 4. The above-mentioned 96-well plates were placed and cultured at 37° C. in shaking incubator shaking at 175 rpm. […] The minimal inhibitory concentration MIC is defined as the lowest concentration of the recombinant protein at which there is no growth of the bacteria.

[2] = tested on: Aeromonas hydrophila; test: MIC against Gram-negative bacteria: Aeromonas hydrophila; conditions: 5×10^5 CFU/mL
Protocol: as §1, §2, §3, §4

[3] = tested on: Serratia marcescens; test: MIC against Gram-negative bacteria: Serratia marcescens; conditions: 5×10^5 CFU/mL
Protocol: as §1, §2, §3, §4

[4] = tested on: Klebsiella pneumonia; test: MIC against Gram-negative bacteria: Klebsiella pneumonia; conditions: 5×10^5 CFU/mL
Protocol: as §1, §2, §3, §4

[5] = tested on: E. coli DH5α; test: Antibacterial activity: MIC and growth curve against E. coli DH5α in 96-well plate; conditions: minimal inhibitory concentration against E. coli DH5α; 96-well plate, 5×10^5 CFU/mL, 37° C., judged after 8 h
Protocol: 1. E. coli DH5α was exemplified. E. coli DH5α was streaked and cultured on LB solid medium. Then, a typical clone was picked and inoculated into common LB liquid medium, cultured at 37° C. with shaking at 185 rpm until the logarithmic growth phase was reached (OD600 of about 0.5). The bacterial culture was centrifuged at 4000×g for 3 min, the supernatant was discarded, and the thalli were resuspended with fresh LB medium.
2. The above-mentioned bacterial suspension was diluted and inoculated into a 96-well plate with the total volume of 100 μL per well and a bacterial count of 5×10^5 CFU/mL.
3. The recombinant protein hF VII-EGF1 was added to the above-mentioned wells with the final protein concentration in the well of the highest protein concentration being 50 μg/mL. Basing on this final concentration, a two-fold serial dilution was performed till a protein concentration gradient consisting of 50, 25, and 12.5 μg/mL was set up. Three parallel wells were set up for each concentration in the gradient.
as §4, with “plate was” for “plates were”, “rpm. Samples were taken every 30 min, the absorbance values were determined at 600 nm wavelength under a ultra violet spectrophotometer, and an inhibition curve was plotted.” for “rpm.”
According to the experimental procedures in Example 14, the minimal inhibitory concentrations (MIC, μg/mL) of the other human-originated EGF domain proteins (PRT2 to PRT1498 in Table 1) for E. coli DH5α were determined.

[6] = tested on: Pseudomonas aeruginosa; test: MIC against Gram-negative bacteria: Pseudomonas aeruginosa; conditions: 5×10^5 CFU/mL
Protocol: as §1, §2, §3, §4

[7] = tested on: Proteus vulgaris; test: MIC against Gram-negative bacteria: Proteus vulgaris; conditions: 5×10^5 CFU/mL
Protocol: as §1, §2, §3, §4

[8] = tested on: Enterobacter cloacae; test: MIC against Gram-negative bacteria: Enterobacter cloacae; conditions: 5×10^5 CFU/mL
Protocol: as §1, §2, §3, §4

[9] = tested on: E. coli BL21; test: MIC against Gram-negative bacteria: E. coli BL21; conditions: 5×10^5 CFU/mL
Protocol: as §1, §2, §3, §4

[10] = tested on: Moraxella catarrhalis; test: MIC against Gram-negative bacteria: Moraxella catarrhalis; conditions: 5×10^5 CFU/mL
Protocol: as §1, §2, §3, §4

[11] = tested on: Citrobacter diversus; test: MIC against Gram-negative bacteria: Citrobacter diversus; conditions: 5×10^5 CFU/mL
Protocol: as §1, §2, §3, §4

[12] = 10 h cultivation at 37° C., two-fold serial dilution

Molecule | MIC [5] | MIC against P. mirabilis ([1]; 96-well plate, 37° C., 10 h) | MIC against A. hydrophila ([2]; 96-well plate, 37° C., 10 h) | MIC against S. marcescens ([3]; 96-well plate, 37° C., 10 h) | MIC against K. pneumonia ([4]; 96-well plate, 37° C., 10 h) | MIC against P. aeruginosa ([6]; 96-well plate, 37° C., 10 h) | MIC against P. vulgaris ([7]; 96-well plate, 37° C., 10 h) | MIC against E. cloacae ([8]; 96-well plate, 37° C., 10 h) | MIC against E. coli BL21 ([9]; 96-well plate, 37° C., 10 h) | MIC against M. catarrhalis ([10]; 96-well plate, 37° C., 10 h) | MIC against C. diversus ([11]; 96-well plate, 37° C., 10 h) | also measured
PRT1182 (protein, listed as Homo sapiens) PREPCPGGACRVIDGCGSDAGPGMPGTAASGVCGPHGRCVSQPGGNFSCICDSGFTGTYCH | 12.5 µg/mL | – | – | – | – | – | – | – | – | – | – | MIC P. mirabilis [1, 12]: 50 µg/mL; MIC A. hydrophila [2, 12]: 12.5 µg/mL; MIC S. marcescens [3, 12]: 25 µg/mL; MIC K. pneumonia [4, 12]: 25 µg/mL; MIC P. aeruginosa [6, 12]: 50 µg/mL; MIC P. vulgaris [7, 12]: 12.5 µg/mL; MIC E. cloacae [8, 12]: 25 µg/mL; MIC E. coli BL21 [9, 12]: 25 µg/mL; MIC M. catarrhalis [10, 12]: 12.5 µg/mL; MIC C. diversus [11, 12]: 50 µg/mL
PRT1459 (protein, listed as Homo sapiens) CQCNSHSKSCHYNISVDPFPFEHFRGGGGVCDDCEHNTTGRNCELCKDYFFRQVGADPSAIDVCKP | 12.5 µg/mL | – | – | – | – | – | – | – | – | – | – | MIC against P. mirabilis ([1]; Proteus mirabilis, 10 h cultivation at 37° C.): 25 µg/mL; MIC against A. hydrophila ([2]; Aeromonas hydrophila, 10 h cultivation at 37° C.): 25 µg/mL; MIC against S. marcescens ([3]; Serratia marcescens, 10 h cultivation at 37° C.): 25 µg/mL; MIC against K. pneumonia ([4]; Klebsiella pneumonia, 10 h cultivation at 37° C.): 25 µg/mL; MIC against P. aeruginosa ([6]; Pseudomonas aeruginosa, 10 h cultivation at 37° C.): 25 µg/mL; MIC against P. vulgaris ([7]; Proteus vulgaris, 10 h cultivation at 37° C.): 50 µg/mL; MIC against E. cloacae ([8]; Enterobacter cloacae, 10 h cultivation at 37° C.): 12.5 µg/mL; MIC against E. coli BL21 ([9]; E. coli BL21, 10 h cultivation at 37° C.): 50 µg/mL; MIC against M. catarrhalis ([10]; Moraxella catarrhalis, 10 h cultivation at 37° C.): 12.5 µg/mL; MIC against C. diversus ([11]; Citrobacter diversus, 10 h cultivation at 37° C.): 50 µg/mL
PRT477 (protein, listed as Homo sapiens) LCSQALCSGHGRCVRRTSHPKALLLLNPASFSIQLTPGGGPLSLRGALSLGDQAQMAVEFKCRCYPGWQAPWCE | 12.5 µg/mL | 25 µg/mL | 12.5 µg/mL | 25 µg/mL | 50 µg/mL | 12.5 µg/mL | 12.5 µg/mL | 25 µg/mL | 50 µg/mL | 50 µg/mL | 25 µg/mL | –
PRT480 (protein, listed as Homo sapiens) VCSLHLCRNNGRCIRKMWNAPSYLHLNPASYHIEASEDGEFTVKGKASDTDLAVMADTFSCHCYQGYEGADCR | 12.5 µg/mL | 12.5 µg/mL | 25 µg/mL | 50 µg/mL | 25 µg/mL | 50 µg/mL | 25 µg/mL | 12.5 µg/mL | 25 µg/mL | 25 µg/mL | 50 µg/mL | –
PRT499 (protein, listed as Homo sapiens) CNCHNKAKDCYYDESVAKQKKSLNTAGQFRGGGVCINCLQNTMGINCETCIDGYYRPHKVSPYEDEPCRP | 12.5 µg/mL | 50 µg/mL | 25 µg/mL | 12.5 µg/mL | 25 µg/mL | 100 µg/mL | 25 µg/mL | 12.5 µg/mL | 25 µg/mL | 25 µg/mL | 12.5 µg/mL | –
PRT514 (protein, listed as Homo sapiens) CNCHGKAEECYYDENVARRNLSLNIRGKYIGGGVCINCTQNTAGINCETCTDGFFRPKGVSPNYPRPCQP | 50 µg/mL | 12.5 µg/mL | 25 µg/mL | 12.5 µg/mL | 25 µg/mL | 50 µg/mL | 25 µg/mL | 12.5 µg/mL | 12.5 µg/mL | 25 µg/mL | 12.5 µg/mL | –
PRT529 (protein, listed as Homo sapiens) CNCHGHASNCYYDPDVERQQASLNTQGIYAGGGVCINCQHNTAGVNCEQCAKGYYRPYGVPVDAPDGCIP | 25 µg/mL | 25 µg/mL | 12.5 µg/mL | 25 µg/mL | 50 µg/mL | 25 µg/mL | 12.5 µg/mL | 25 µg/mL | 12.5 µg/mL | 50 µg/mL | 25 µg/mL | –
PRT551 (protein, listed as Homo sapiens) CNCYGHATDCYYDPEVDRRRASQSLDGTYQGGGVCIDCQHHTTGVNCERCLPGFYRSPNHPLDSPHVCRR | 12.5 µg/mL | 12.5 µg/mL | 25 µg/mL | 50 µg/mL | 25 µg/mL | 50 µg/mL | 25 µg/mL | 12.5 µg/mL | 25 µg/mL | 25 µg/mL | 50 µg/mL | –
PRT587 (protein, listed as Homo sapiens) CFCHGHADRCAPKPGASAGPSTAVQVHDVCVCQHNTAGPNCERCAPFYNNRPWRPAEGQDAHECQR | 25 µg/mL | 25 µg/mL | 50 µg/mL | 25 µg/mL | 12.5 µg/mL | 25 µg/mL | 50 µg/mL | 25 µg/mL | 50 µg/mL | 12.5 µg/mL | 25 µg/mL | –
PRT588 (protein, listed as Homo sapiens) CDCNGHSETCHFDPAVFAASQGAYGGVCDNCRDHTEGKNCERCQLHYFRNRRPGASIQETCIS | 12.5 µg/mL | 12.5 µg/mL | 25 µg/mL | 12.5 µg/mL | 25 µg/mL | 50 µg/mL | 25 µg/mL | 12.5 µg/mL | 25 µg/mL | 25 µg/mL | 12.5 µg/mL | –
PRT593 (protein, listed as Homo sapiens) CFCNGHASECRPMQKMRGDVFSPPGMVHGQCVCQHNTDGPNCERCKDFFQDAPWRPAADLQDNACRS | 25 µg/mL | 25 µg/mL | 50 µg/mL | 25 µg/mL | 12.5 µg/mL | 25 µg/mL | 50 µg/mL | 25 µg/mL | 50 µg/mL | 12.5 µg/mL | 25 µg/mL | –
